Patent US20230036655A1 (OTSUKA PHARMACEUTICAL, published 2023)

T1: mutant hGDF15 4A (human, UniProt Q99988 197-308)
T1 construct: Expressed in ExpiCHO-S cells and used as culture supernatant
T1 chain: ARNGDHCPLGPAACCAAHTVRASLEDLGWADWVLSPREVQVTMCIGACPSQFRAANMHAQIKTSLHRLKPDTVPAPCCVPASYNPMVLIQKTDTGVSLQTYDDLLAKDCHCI

T2: mutant hGDF15 3A (human, UniProt Q99988 197-308)
T2 construct: Expressed in ExpiCHO-S cells and used as culture supernatant
T2 chain: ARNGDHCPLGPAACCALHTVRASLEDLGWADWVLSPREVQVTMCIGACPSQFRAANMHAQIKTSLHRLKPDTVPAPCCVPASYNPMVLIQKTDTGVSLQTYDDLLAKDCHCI

T3: mutant hGDF15 8A (human, UniProt Q99988 197-308)
T3 construct: Expressed in ExpiCHO-S cells and used as culture supernatant
T3 chain: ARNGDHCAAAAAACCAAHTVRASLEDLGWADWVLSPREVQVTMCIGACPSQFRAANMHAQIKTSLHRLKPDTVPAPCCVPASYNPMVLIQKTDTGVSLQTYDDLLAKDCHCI

T4: mutant hGDF15 6A (human, UniProt Q99988 197-308)
T4 construct: Expressed in ExpiCHO-S cells and used as culture supernatant
T4 chain: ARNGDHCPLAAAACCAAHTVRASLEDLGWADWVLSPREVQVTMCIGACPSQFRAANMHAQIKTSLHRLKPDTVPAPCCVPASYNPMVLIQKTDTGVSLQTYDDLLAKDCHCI

T5: mutant hGDF15 T72A (human, UniProt Q99988 197-308)
T5 construct: Expressed in ExpiCHO-S cells and used as culture supernatant in the ELISA
T5 chain: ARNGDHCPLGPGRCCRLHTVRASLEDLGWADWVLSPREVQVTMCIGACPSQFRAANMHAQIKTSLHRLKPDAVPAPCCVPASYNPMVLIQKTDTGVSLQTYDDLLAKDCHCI

T6: mutant hGDF15 R13A (human, UniProt Q99988 197-308)
T6 construct: Expressed in ExpiCHO-S cells and used as culture supernatant in the ELISA
T6 chain: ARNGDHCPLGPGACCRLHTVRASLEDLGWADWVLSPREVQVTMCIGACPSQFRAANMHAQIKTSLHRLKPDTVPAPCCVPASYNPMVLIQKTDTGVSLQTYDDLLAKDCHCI

T7: mutant hGDF15 R16A (human, UniProt Q99988 197-308)
T7 construct: Expressed in ExpiCHO-S cells and used as culture supernatant in the ELISA
T7 chain: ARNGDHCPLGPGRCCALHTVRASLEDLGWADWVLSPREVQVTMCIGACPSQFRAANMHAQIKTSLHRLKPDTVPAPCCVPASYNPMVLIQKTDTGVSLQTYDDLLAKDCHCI

T8: mutant hGDF15 R13A, R16A (human, UniProt Q99988 197-308)
T8 construct: Expressed in ExpiCHO-S cells and used as culture supernatant in the ELISA
T8 chain: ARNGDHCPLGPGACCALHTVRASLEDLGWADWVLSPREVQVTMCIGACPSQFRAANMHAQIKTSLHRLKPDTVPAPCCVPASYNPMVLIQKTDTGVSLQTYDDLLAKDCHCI

T9: mutant hGDF15 H6A (human, UniProt Q99988 197-308)
T9 construct: Expressed in ExpiCHO-S cells and used as culture supernatant in the ELISA
T9 chain: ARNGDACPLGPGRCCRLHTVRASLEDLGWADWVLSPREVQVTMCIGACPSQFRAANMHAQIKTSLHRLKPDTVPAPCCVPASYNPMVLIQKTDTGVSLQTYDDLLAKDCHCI

T10: human GDF15 (hGDF15), mature, wild-type (human, UniProt Q99988 197-308)
T10 construct: Bought recombinant protein: R&D Systems 957-GD-025/CF in most assays, 9279-GD in the crystal and the GDF15/GFRAL/RET assay; It was biotinylated in the GFRAL assay; also called hGDF15 (WT); rhGDF15
T10 sequence: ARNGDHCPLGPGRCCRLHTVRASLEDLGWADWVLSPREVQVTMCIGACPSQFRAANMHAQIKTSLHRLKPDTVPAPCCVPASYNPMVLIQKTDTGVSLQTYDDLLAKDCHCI

B1: Hu01G06-127 (antibody, V domains shown)
VH: QVQLVQSGAEVKKPGASVKVSCKASGYTFTDYNMDWVRQAPGQSLEWMGQINPNNGLIFFNQKFQGRVTLTTDTSTSTAYMELRSLRSDDTAVYYCAREAITTVGAMDYWGQGTLVTVSS
VL: DIQMTQSPSSLSASVGDRVTITCRTSENLHNYLAWYQQKPGKSPKLLIYDAKTLADGVPSRFSGSGSGTDYTLTISSLQPEDFATYYCQHFWSDPYTFGQGTKLEIKR
B2: MAB13 (antibody, V domains shown)
VH: EIQLQQTGPELVKPGASVKISCKASGYSFTDYIMLWVKQRHGKSLEWIGNIHPYYGTTSYNLKFKGKATLTVDKSSSTAYMQLNSLTSEDSAVYYCARGIGGSPFAYWGQGTLVTVSA
VL: DVLMTQTPLSLPVSLGDQASISCRSSQSIVHSNGNTYLEWYLQKPGQSPKLLIYKVSNRFSGVPDRFTGTGSGTDFTLKISRVEAEDLGVYYCFQGSHVPYTFGGGTKLEIK
notes: Mouse monoclonal antibody from hybridoma; also called clone MAB13
B3: MAB1 (antibody, V domains shown)
VH: EVQLQQSGPELEKPGASVKISCKASGYSFTGYNMNWVKQSNGKSLEWIGNIDPYYGGTSYNQKFKGKATLTVDKSSSTAYMQLKSLTSEDSAVYYCARPGRYDGAWFAYWGQGTLVTVSA
VL: QIVLSQSPAILSASPGEKVTMTCRASSNVNYMHWYQQKPGSSPKPWIYATSNLASGVPARFSGSGSGTSYSLTISRVEAEDAATYYCQQWSDNPLTFGAGTKLELK
notes: Mouse monoclonal antibody from hybridoma; also called clone MAB1
B4: MAB17 (antibody, V domains shown)
VH: QVTLKESGPGILQPSQTLSLTCSFSGFSLNTHGMGVGWIRQPSGKGLEWLANIWWNDDKYYNSALKSRLTLSKDTSNNQVFLKISSVDTADTATYFCAQVAWDWFAYWGQGTLVTIS
VL: QIVLTQSPAIMSASLGEEITLTCSASSSVRYMHWYQQKSGTSPKVLIYSTSNLASGVPSRFSGSGSGTFYSLTISSVEAEDAADYYCHQWSSYPWTFGGGTKLEIKR
notes: Mouse monoclonal antibody from hybridoma; also called clone MAB17

What was measured:
mutant hGDF15 4A = target: T1, mutant hGDF15 4A; experiment: sandwich ELISA: antibody immobilised, WT or mutant hGDF15, goat polyclonal detection; N=3, mean ± SD
mutant hGDF15 3A = target: T2, mutant hGDF15 3A; experiment: as above
mutant hGDF15 8A = target: T3, mutant hGDF15 8A; experiment: as above
mutant hGDF15 6A = target: T4, mutant hGDF15 6A; experiment: as above
mutant hGDF15 T72A = target: T5, mutant hGDF15 T72A; experiment: as above
mutant hGDF15 R13A = target: T6, mutant hGDF15 R13A; experiment: as above
mutant hGDF15 R16A = target: T7, mutant hGDF15 R16A; experiment: as above
mutant hGDF15 R13A, R16A = target: T8, mutant hGDF15 R13A, R16A; experiment: as above
mutant hGDF15 H6A = target: T9, mutant hGDF15 H6A; experiment: as above
[1] = target: T10, human GDF15 (hGDF15), mature, wild-type; experiment: competition ELISA: GFRAL immobilised, biotinylated GDF15 plus serially diluted antibody; inhibition of GDF15-GFRAL complex formation
From the text: First, the effect on GDF15 and GFRAL complex formation was examined (FIG. 12). GFRAL (R&D systems, 9697-GR) was immobilized on a plate, and GDF15 (R&D systems, 957-GD/CF) biotinylated with EZ-Link Micro NHS-PEG4-Bitinylation Kit (Thermo Fisher Scientific, 21955) and a serially diluted solution of an anti-GDF15 monoclonal antibody (Table 26) were reacted with the plate. Human IgG1, kappa-Isotype Control (Abcam) was used as a negative control antibody. GDF15 bound to GFRAL was detected using Pierce High Sensitivity Streptavidin-HRP (Thermo Fisher Scientific, 21130). TMB 1-Component Microwell Peroxidase Substrate, SureBlue (SeraCare Life Sciences) was used for color development, and the reaction was stopped by adding a stop solution (Wako). Absorbance was measured at 450 nm (OD450) using Emax (Molecular Devices). The % of control value was calculated according to Equation-1 from the OD450 value when each antibody was added, with the OD450 value when no antibody was added as a control. The IC50 value was obtained by calculating the inhibition rate from the % of control value thus obtained according to Equation-2 and using an Excel macro for IC50 calculation.

[2] = target: T10, human GDF15 (hGDF15), mature, wild-type; experiment: sandwich ELISA: antibody immobilised, WT or mutant hGDF15, goat polyclonal detection; N=3, mean ± SD (reference)
[3] = target: T10, human GDF15 (hGDF15), mature, wild-type; experiment: competition ELISA: GFRAL immobilised, biotinylated GDF15 plus serially diluted antibody; inhibition of GDF15-GFRAL complex formation (negative control)
[4] = target: T10, human GDF15 (hGDF15), mature, wild-type; experiment: competition (sandwich) ELISA: clone immobilised, hGDF15 captured; competitor: biotinylated HuMAB2
Method: HuMAB2 and the anti-GDF15 monoclonal antibodies shown in Table 5 (2 μg/mL) were added to 96-well plates at 100 μL/well to be immobilized on the plates, and reacted with 100 μL/well of hGDF15 (R&D Systems, 957-GD-025/CF) serially diluted from a concentration of 1 ng/ml. HuMAB2 biotinylated using EZ-Link Micro NHS-PEG4-Bitinylation Kit (Thermo Fisher Scientific, 21955) was used as the detection antibody (1 μg/mL as 100 μL/well). Whether or not sandwich ELISA was established was determined using Streptavidin-HRP conjugate in Human GDF15 ELISA Kit (R&D Systems, DY957). The detection antibody in Human GDF15 ELISA Kit (R&D Systems, DY957) (Table 5), which can establish sandwich ELISA with any monoclonal antibody, was used as a positive control antibody (PC) for sandwich ELISA.
Then, other antibodies obtained this time were tested to see whether each of these antibodies competes with HuMAB2 by the same method as described above.

| Molecule | IC50 [1] | relative binding (amount bound to 500 pg/mL hGDF15 = 100) (mutant hGDF15 4A) | relative binding (amount bound to 500 pg/mL hGDF15 = 100) (mutant hGDF15 3A) | relative binding (amount bound to 500 pg/mL hGDF15 = 100) (mutant hGDF15 8A) | relative binding (amount bound to 500 pg/mL hGDF15 = 100) (mutant hGDF15 6A) | relative binding (amount bound to 500 pg/mL hGDF15 = 100) (mutant hGDF15 T72A) | relative binding (amount bound to 500 pg/mL hGDF15 = 100) (mutant hGDF15 R13A) | relative binding (amount bound to 500 pg/mL hGDF15 = 100) (mutant hGDF15 R16A) | relative binding (amount bound to 500 pg/mL hGDF15 = 100) (mutant hGDF15 R13A, R16A) | relative binding (amount bound to 500 pg/mL hGDF15 = 100) (mutant hGDF15 H6A) | Inhibition % [4] | other results |
| --- | --- | --- | --- | --- | --- | --- | --- | --- | --- | --- | --- | --- |
| MAB957 (antibody) | 11.1 nM |  |  |  |  |  |  |  |  |  |  | relative binding (amount bound to 500 pg/mL hGDF15 = 100) (relative value (WT hGDF15 = 100)) (mutant hGDF15 4A): 84.1; relative binding (amount bound to 500 pg/mL hGDF15 = 100) (relative value (WT hGDF15 = 100)) (mutant hGDF15 3A): 99; relative binding (amount bound to 500 pg/mL hGDF15 = 100) (relative value (WT hGDF15 = 100)) (mutant hGDF15 8A): 69.2; relative binding (amount bound to 500 pg/mL hGDF15 = 100) (relative value (WT hGDF15 = 100)) (mutant hGDF15 6A): 74.3; relative binding (amount bound to 500 pg/mL hGDF15 = 100) (relative value (WT hGDF15 = 100)) (mutant hGDF15 T72A): 101; relative binding (amount bound to 500 pg/mL hGDF15 = 100) (relative value (WT hGDF15 = 100)) (mutant hGDF15 R13A): 89.9; relative binding (amount bound to 500 pg/mL hGDF15 = 100) (relative value (WT hGDF15 = 100)) (mutant hGDF15 R16A): 93.9; relative binding (amount bound to 500 pg/mL hGDF15 = 100) (relative value (WT hGDF15 = 100)) (mutant hGDF15 R13A, R16A): 80.6; relative binding (amount bound to 500 pg/mL hGDF15 = 100) (relative value (WT hGDF15 = 100)) (mutant hGDF15 H6A): 88.3; relative binding (amount bound to 500 pg/mL hGDF15 = 100) (relative value (WT hGDF15 = 100)) [2]: 100 |
| Human IgG1 Isotype control (antibody) |  |  |  |  |  |  |  |  |  |  |  | IC50 [3]: > 500 nM |
| B1 | 0.05 nM | 83.5 relative value (WT hGDF15 = 100) | 96.2 relative value (WT hGDF15 = 100) | 57.1 relative value (WT hGDF15 = 100) | 61.6 relative value (WT hGDF15 = 100) | 108 relative value (WT hGDF15 = 100) | 91.4 relative value (WT hGDF15 = 100) | 102 relative value (WT hGDF15 = 100) | 87.6 relative value (WT hGDF15 = 100) | 90.5 relative value (WT hGDF15 = 100) |  |  |
| B2 |  |  |  |  |  |  |  |  |  |  | 79% |  |
| B3 |  |  |  |  |  |  |  |  |  |  | 82% |  |
| B4 | 12 nM | 95 relative value (WT hGDF15 = 100) | 110 relative value (WT hGDF15 = 100) | 78.8 relative value (WT hGDF15 = 100) | 83.9 relative value (WT hGDF15 = 100) | 104 relative value (WT hGDF15 = 100) | 97.2 relative value (WT hGDF15 = 100) | 101 relative value (WT hGDF15 = 100) | 83 relative value (WT hGDF15 = 100) | 87.7 relative value (WT hGDF15 = 100) | 0% |  |
